{"source": "patent US20240425848", "proteins": {"B1": {"name": "Tn5 (protein)", "chain": "MITSALHRAADWAKSVFSSAALGDPRRTARLVNVAAQLAKYSGKSITISSEGSKAMQEGAYRFIRNPNVSAEAIRKAGAMQTVKLAQEFPELLAIEDTTSLSYRHQVAEELGKLGSIQDKSRGWWVHSVLLLEATTFRTVGLLHQEWWMRPDDPADADEKESGKWLAAAATSRLRMGSMMSNVIAVCDREADIHAYLQDKLAHNERFVVRSKHPRKDVESGLYLYDHLKNQPELGGYQISIPQKGVVDKRGKRKNRPARKASLSLRSGRITLKQGNITLNAVLAEEINPPKGETPLKWLLLTSEPVESLAQALRVIDIYTHRWRIEEFHKAWKTGAGAERQRMEEPDNLERMVSILSFVAVRLLQLRESFTPPQALRAQGLLKEAEHVESQSAETVLTPDECQLLGYLDKGKRKRKEKAGSLQWAYMAIARLGGFMDSKRTGIASWGALWEGWEALQSKLDGFLAAKDLMAQGIKI"}}, "biological_target": "histone H3 trimethylated at lysine 9 (H3K9me3) in native chromatin of Caki-1 cells, P68431"}
{"protein": "B1", "values": [{"measurement": "Ec: global enrichment of the ATAC-seq tagmentation signal over H3K9me3-marked regions, log2(ratio) over genomic Input, Caki-1; subscript printed as 0, first E line of the box", "result": "E0= -5.07"}, {"measurement": "Ec: global enrichment of the ATAC-seq tagmentation signal over H3K9me3-marked regions, log2(ratio) over genomic Input, Caki-1 [Continued) e]", "result": "Ec= -5.07"}, {"measurement": "Mc: modal enrichment of the ATAC-seq tagmentation signal over H3K9me3-marked regions, log2(ratio) over genomic Input, Caki-1; subscript printed as 0, first M line of the box, agrees with the mode of t", "result": "M0= -2.19"}, {"measurement": "Mc: modal enrichment of the ATAC-seq tagmentation signal over H3K9me3-marked regions, log2(ratio) over genomic Input, Caki-1 [Continued) e]", "result": "Mc= -2.19"}, {"measurement": "stated: no tagmentation signal over H3K9me3 ChIP-seq domains (ATAC-seq on permeabilized Caki-1 nuclei)", "result": "Tn5 track (scale 0-140.7): near zero over the H3K9me3 domains at about 42.4-43.4 and 43.8-44.6 Mbp of Chr. 19; peaks only where the H3K4me3 track has peaks"}, {"measurement": "stated: no tagmentation signal over H3K9me3 ChIP-seq domains (ATAC-seq, Caki-1)", "result": "Tn5 track (scale 0-50): clusters of sharp peaks at the positions of the H3K4me3 peaks; near zero at about 59-62 Mbp of Chr.12, where the H3K9me3 and TnH tracks are raised"}, {"measurement": "stated: no tagmentation signal over H3K9me3 ChIP-seq domains (bulk ATAC-seq with Tn5 alone and scGET-seq pseudo-bulk, Caki-1) [Continued) g]", "result": "tn5 and tn5 pseudobulk tracks (scale 0-50 each): flat near 0 at about 33.5-34.7 Mbp and near 0 inside the H3K9me3 domains at about 36.6-37.4 and 38.2-38.9 Mbp of chr1; sharp peaks at the positions of the H3K4me3 peaks"}]}
